± gives the uncertainty stated by the source.
Test: amyloid nucleation score (Sup35N fusion, yeast selection) (log enrichment); library NNK2; higher = more nucleation; inactive = no reads after selection
Method in brief: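 Libraries of peptides of 20 random codons fused to Sup35N were expressed in psi-negative yeast and induced 24 hours with 100 μM copper sulfate. Selection was 7 days at 30°C on medium lacking adenine and uracil, and plasmid inserts were Illumina-sequenced before and after selection. Nucleation score is the DiMSum log enrichment of output over input reads, centred on the mode score of non-aggregating sequences, and sequences with under 100 input reads were left out.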
With LFKCVSTGHYLLTFRVVVYG the amyloid nucleation score was -0.456 ± 0.39.
In the case of LFKRGIVGDRGTKG, the amyloid nucleation score is reported as -0.905 ± 0.48.
For LFLQVGTAVGIRYINGAYLV, the amyloid nucleation score was -0.959 ± 0.38.
With LFLTHPARWSSNLRRLL the amyloid nucleation score was 0.069 ± 0.3.
For LFMFGFGIL, the amyloid nucleation score was 0.05 ± 0.42.
LFMPGSFFDIFE showed an amyloid nucleation score of -2.05 ± 0.78.
Substance LFMRPCDLFEVVLSTVRLVW has an amyloid nucleation score of 1.29 ± 0.52.
LFNVMLCMP showed an amyloid nucleation score of 4.17 ± 0.048.
Substance LFRCELSLGRHMGFLDWEWG has an amyloid nucleation score of 0.201 ± 0.38.
For LFRFYCMIANCIVLQN, the amyloid nucleation score was 4.93 ± 0.045.
Substance LFRLSCIALCVGIIIVSDGV has an amyloid nucleation score of -0.33 ± 0.79.
With LFRSHSCVCTLVKQ the amyloid nucleation score was -0.008 ± 0.46.
Work on LFRVMILC yielded an amyloid nucleation score of -0.239 ± 0.42.
Work on LFSLTGIKLE yielded an amyloid nucleation score of -0.483 ± 1.1.
Substance LFSSQLTATVRVPMSRNGLW has an amyloid nucleation score of 7.088 ± 0.031.
Substance LFTEISKYQVYGVYWTALFE has an amyloid nucleation score of -0.137 ± 1.1.
For LFTVYFKK, the amyloid nucleation score was -0.6 ± 0.63.
Work on LFVCNSMP yielded an amyloid nucleation score of 0.35 ± 0.8.
Substance LFVHYFSVGYSHLLCRDCTS has an amyloid nucleation score of 3.23 ± 0.1.
Substance LFYAAEYKLCMEV has an amyloid nucleation score of -0.857 ± 0.41.
In the case of LFYRYFLCVTRRTNEYGVL, the amyloid nucleation score is reported as -1.75 ± 1.
LGDAHALCGRLTVCRGGTGP showed an amyloid nucleation score of 3.58 ± 0.075.
For LGFFKSGVVH, the amyloid nucleation score was “inactive”.
LGFWL showed an amyloid nucleation score of -1.31 ± 0.41.
LGGLSDVFQNRPLMTYGAWS showed an amyloid nucleation score of -0.303 ± 0.35.
Substance LGIKRNQI has an amyloid nucleation score of -0.812 ± 0.45.
Substance LGIYVFAFKRMVNMEDLYTR has an amyloid nucleation score of -1.05 ± 0.41.
In the case of LGNTRSIWGE, the amyloid nucleation score is reported as 0.578 ± 0.27.
LGPAYYYHNYLNLRGLSSGM gave an amyloid nucleation score of 0.504 ± 0.74.
For LGPLVYFLFVNIPNQGFFLC, the amyloid nucleation score was 1.56 ± 0.16.
In the case of LGRWASGTAG, the amyloid nucleation score is reported as 0.558 ± 0.57.
LGSVVSTPFCYSMFRTFKKH showed an amyloid nucleation score of 0.109 ± 0.27.
With LGVESTCRSWFMFLGTQRIA the amyloid nucleation score was -0.342 ± 1.
For LGWINKWKRLSNIPIAKWHC, the amyloid nucleation score was “inactive”.
For LGYGRWCKVARPEYESGLTM, the amyloid nucleation score was 0.042 ± 1.1.
With LHAIHSFDWPTSLIVYHP the amyloid nucleation score was “inactive”.
LHFQYERSWNARSTLM gave an amyloid nucleation score of 4.08 ± 0.076.
LHFSGFTKFRFIMVFGKKVC showed an amyloid nucleation score of -1.24 ± 0.49.
LHGVSAIMLGTIGARVN showed an amyloid nucleation score of -0.125 ± 0.49.
Work on LHIKW yielded an amyloid nucleation score of 5.728 ± 0.033.
LHKISIGKCSRCSCRNTFGE showed an amyloid nucleation score of -0.171 ± 1.
With LHLEMTEW the amyloid nucleation score was “inactive”.
LHNMNWPLFVLVACLVDIPT showed an amyloid nucleation score of -0.724 ± 0.42.
With LHPLVSLVVHTFMPEVRLVL the amyloid nucleation score was “inactive”.
Substance LHRKWFGYGCTCSWIGWEEW has an amyloid nucleation score of -0.002 ± 0.48.
In the case of LHSRFL, the amyloid nucleation score is reported as 0.236 ± 1.1.
In the case of LHTLVALINACRNASGSVHD, the amyloid nucleation score is reported as 0.167 ± 0.65.
With LIAGYDAWWSSKMSRHKVSV the amyloid nucleation score was -0.232 ± 0.27.
Work on LICAL yielded an amyloid nucleation score of 0.61 ± 0.39.
Work on LICSHTLIRVYVKFF yielded an amyloid nucleation score of 1.16 ± 0.3.
For LIDNFS, the amyloid nucleation score was -0.351 ± 0.45.
In the case of LIFGAKLESGYASVEFSDSD, the amyloid nucleation score is reported as -0.347 ± 1.
For LIGAATSKNVIRCNGWDGDQ, the amyloid nucleation score was 0.848 ± 0.57.
Work on LIGDSLSVVRNRNFPPARGK yielded an amyloid nucleation score of -0.237 ± 1.
For LIGEVAYFICHFSKVVARLF, the amyloid nucleation score was 2.06 ± 0.075.
In the case of LIIQRLEGAF, the amyloid nucleation score is reported as -0.245 ± 0.32.
Work on LIKVVVMS yielded an amyloid nucleation score of 1.04 ± 0.42.
LILLFLTAQRLCLVSDEESE showed an amyloid nucleation score of -0.409 ± 0.41.
With LIMLASSLWTRKGGDTST the amyloid nucleation score was 6.292 ± 0.053.
LIMYGTKLSRLVMLLYYWTW gave an amyloid nucleation score of 0.031 ± 0.34.
In the case of LINPCVRLWLCNCIFTFESA, the amyloid nucleation score is reported as 7.872 ± 0.027.
In the case of LINVMLS, the amyloid nucleation score is reported as “inactive”.
With LIRPSLPSS the amyloid nucleation score was 0.807 ± 0.28.
Substance LIRVYRKVGLVTLLHGMNRM has an amyloid nucleation score of 0.039 ± 0.32.
